The text below walks through data of the RNAGym collection of RNA variant scans (doi:10.1073/pnas.2313332121).

Fewer inactive variants are shown than the library holds.

The labels stand for the following.
B1: TPR 5TU (parent)
chain: GGAUCUUCUCGAUCUAACAAAAAAGACAAAUCUGCCACAAAGCUUGAGAGCAUCUUCGGAUGCAGAGGCGGCAGCCUUCGGUGGCGCGAUAGCGCCAACGUUCUCAACUAUGACACGCAAAACGCGUGCUCCGUUGAAUGGAGUUUAUCAUG

Variants of B1 are the subject of this data set. Kind of data set: polymerase ribozyme fitness, log enrichment relative to wild type (log ratio); higher = more active; in vitro selection for triplet polymerase activity. Summed up: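 Fitness measures genotype enrichment against wild-type enrichment on a logarithmic scale, with inverse-variance-weighted averaging of replicates. The logarithm is base 2, and genotypes were kept only with ≥10 input reads and ≥1 read per output in Illumina sequencing. The sequenced libraries came from one triplicate in vitro selection round, including frozen incubation at −7 °C, of PCR-built, transcribed mutant libraries of each subunit of a heterodimeric triplet polymerase ribozyme.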
On to A3G A19C G92A A98G, for which the “polymerase ribozyme fitness (log ratio)” value was -3.18.
On to A3C A28U U77A C93U C129A U148G, for which the “polymerase ribozyme fitness (log ratio)” value is at most -4.2.
On to A3C A16G, for which the “polymerase ribozyme fitness (log ratio)” value was -1.12.
Take A3G C5G G84A G88A: the “polymerase ribozyme fitness (log ratio)” value is -3.09.
As to A3C G50U, the “polymerase ribozyme fitness (log ratio)” value is -1.07.
For the variant A3G C18A C93G C123U C131U, the “polymerase ribozyme fitness (log ratio)” value was -1.32.
Next, A3C C5U C43U G70C G84A A106U A113C: at most -4.2; A3G C63U A73G G86U U135A: -3.75.
Take A3C C8G C76U C87A A106U: the “polymerase ribozyme fitness (log ratio)” value is at most -4.2.
With A3G A29G A39G G86U C99G, the “polymerase ribozyme fitness (log ratio)” value is at most -4.2.
For A3C C8U C18U A49G C87A, the “polymerase ribozyme fitness (log ratio)” value is at most -4.2.
Take A3C U4A A121G G141A A142C: the “polymerase ribozyme fitness (log ratio)” value is -4.03.
Next, A3C C85U G141C: -2.07; A3C A16G C99G U102G A106U: at most -4.2.
In the case of A3C A60G, the “polymerase ribozyme fitness (log ratio)” value is -0.264.
With A3C C10G G11U A47U G48A G58C U82G G83A A137U, the “polymerase ribozyme fitness (log ratio)” value is at most -4.2.
A3G A17C G143C: the “polymerase ribozyme fitness (log ratio)” value is -2.6.
As to A3G A12C G62U G70C C79G G81A G84A A147C, the “polymerase ribozyme fitness (log ratio)” value is at most -4.2.
On to A3G A12C A39G A97U G133A G143C, for which the “polymerase ribozyme fitness (log ratio)” value is at most -4.2.
In the case of A3G C5G U15C G84U C108U A121U, the “polymerase ribozyme fitness (log ratio)” value is at most -4.2.
Then A3C A22U C85G, with -2.18; and A3C U6G G46C C75A C79A G86A C103G G126U, with at most -4.2.
As for A3G A20C A29U A41G C54U C87U C95U U135G, the “polymerase ribozyme fitness (log ratio)” value is at most -4.2.
For the variant A3C G58C C95G C129A A142C, the “polymerase ribozyme fitness (log ratio)” value was at most -4.2.
On to A3G A21C A60G C76A C85G, for which the “polymerase ribozyme fitness (log ratio)” value is -0.977.
With A3C U13G G62A A66C U145A, the “polymerase ribozyme fitness (log ratio)” value was at most -4.2.
As to A3C A21C C35A C85U C125U, the “polymerase ribozyme fitness (log ratio)” value is at most -4.2.
For the variant A3C C63G C118U, the “polymerase ribozyme fitness (log ratio)” value was -0.545.
Next, A3G A39U G59C G83U: -3.56; A3C U7G C14U A52G: -3.28.
Consider A3G A16U U53A C75U G92U, for which the “polymerase ribozyme fitness (log ratio)” value is -3.54.
Regarding A3C A23U U44A U45C C95U C105G A106C C123U A137G, the “polymerase ribozyme fitness (log ratio)” value is at most -4.2.
As to A3G C38A G124C U134G G136U U146G, the “polymerase ribozyme fitness (log ratio)” value was at most -4.2.
For the variant A3G C87U, the “polymerase ribozyme fitness (log ratio)” value was -0.743.
Then A3C C10G A29U U33G C38U C63U, with at most -4.2.
Next, A3C C35U C75A C129G: at most -4.2; A3G A17U A60U: -1.21; A3C U56G C93U C114G U134A U148C: at most -4.2.
Then A3G A23C C75A G88A C99G C108U G143C, with at most -4.2.
As to A3C G25A A40U G71A C85U C96U A119C A121G G140C, the “polymerase ribozyme fitness (log ratio)” value is at most -4.2.
As for A3G A20U C27G G42A U56A U77G G86A G117U G133C, the “polymerase ribozyme fitness (log ratio)” value was at most -4.2.
As to A3C C85U C96U, the “polymerase ribozyme fitness (log ratio)” value is -0.556.
As to A3C C36U G83A, the “polymerase ribozyme fitness (log ratio)” value is -3.09.
For A3G C14U G42C G59A C96U A122U U146C, the “polymerase ribozyme fitness (log ratio)” value is at most -4.2.
Take A3G C18U U56G G94A A110U A138U U139A: the “polymerase ribozyme fitness (log ratio)” value is at most -4.2.
For the variant A3C U4A U56G C57U C132A, the “polymerase ribozyme fitness (log ratio)” value is -4.08.
Next, A3G A89G C93U A137C A138U G140A: at most -4.2; A3G C27U C51A G59A C85U G88A A115U G141A: at most -4.2; A3C A16U C54A C87U U104G G141C: at most -4.2.
For the variant A3C C43U U53A U61G U101G U139A, the “polymerase ribozyme fitness (log ratio)” value was at most -4.2.
For A3C A24G A73U C93A, the “polymerase ribozyme fitness (log ratio)” value is at most -4.2.
Take A3C C85A U130A C132G: the “polymerase ribozyme fitness (log ratio)” value is at most -4.2.
Turning to A3C U13G A23U C87U A91U C96U, the “polymerase ribozyme fitness (log ratio)” value is at most -4.2.
As to A3G A41U A47G U101G G136U, the “polymerase ribozyme fitness (log ratio)” value was at most -4.2.
A3G C10A A12G G59U A66G C72G C85U: the “polymerase ribozyme fitness (log ratio)” value is at most -4.2.
In the case of A3C U6A, the “polymerase ribozyme fitness (log ratio)” value is -0.461.
On to A3G C14G A147U, for which the “polymerase ribozyme fitness (log ratio)” value is -2.9.
Then A3C C8U U61G G71C G80C C93A C125G U127C U145C G152U, with at most -4.2; and A3G C85G, with -3.16; and A3G C85U, with -1.05.
A3G C8G A30G G48C A64C C87G A137G: the “polymerase ribozyme fitness (log ratio)” value is at most -4.2.
Next, A3G A91U: at most -4.2; A3C G86A C125U: -2.79; A3C U9A A30U G48A U53A C54U G67U C93G G126A U135G: at most -4.2.
On to A3G C8U G25C U45G U55G G81C C95U C114U G117U A120G A122G, for which the “polymerase ribozyme fitness (log ratio)” value is at most -4.2.
In the case of A3G A22C U45C A66C G67C C93U A113U, the “polymerase ribozyme fitness (log ratio)” value was at most -4.2.
For the variant A3C G88C, the “polymerase ribozyme fitness (log ratio)” value was -4.14.
With A3C G48U C69U, the “polymerase ribozyme fitness (log ratio)” value is -2.88.
For the variant A3G A41U C96U, the “polymerase ribozyme fitness (log ratio)” value was -1.56.
Take A3C C14G A39C G81U C96U C105U A121U U134C U135C U148C: the “polymerase ribozyme fitness (log ratio)” value was at most -4.2.
With A3C C36G A60C G83U C118G U151C, the “polymerase ribozyme fitness (log ratio)” value was at most -4.2.
As to A3G C14G U55A U56A C85U, the “polymerase ribozyme fitness (log ratio)” value is -4.18.
Take A3G A73U A121U: the “polymerase ribozyme fitness (log ratio)” value was -0.51.
Consider A3C U7G C87U C93G A98G G100U A120C U148A U151G, for which the “polymerase ribozyme fitness (log ratio)” value is at most -4.2.
As to A3C C10G A49C C54U A60U A91C G100A G136U U139C, the “polymerase ribozyme fitness (log ratio)” value was at most -4.2.
With A3G C10G A41G C76A U145A, the “polymerase ribozyme fitness (log ratio)” value was at most -4.2.
Then A3C U44G U56A G84C, with at most -4.2.
For the variant A3C C14U A16G G59A C87A, the “polymerase ribozyme fitness (log ratio)” value was at most -4.2.
Then A3C C87G, with -3.29; and A3C C57U U82G G84A U90A C93G C149U, with at most -4.2; and A3G A113G C118G, with -3.65.
For the variant A3C A20C C38U A41C U53A G71A C93A G94U G126C, the “polymerase ribozyme fitness (log ratio)” value is at most -4.2.
As to A3C A16U C93G C118U U130G, the “polymerase ribozyme fitness (log ratio)” value is at most -4.2.
